In article PMC8808172 (The Journal of Biological Chemistry, 2021):

T1: ClpX N-terminal zinc-binding domain (ClpXN; amino acids 1–55) (E. coli, UniProt P0A6H1 1-55)
T1 sequence (looked up): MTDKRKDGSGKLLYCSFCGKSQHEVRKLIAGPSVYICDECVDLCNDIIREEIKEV

B1: ClpX(A30S) (enzyme)
chain: not shown
B2: ClpX (WT) (enzyme)
chain: not shown

What was measured:
SEC = biological target: the molecule itself; experiment: SEC
[1] = biological target: T1, ClpX N-terminal zinc-binding domain …; experiment: NMR titration
ClpX(A30S) = biological target: B1; experiment: filter retention assay
ClpX (WT) = biological target: B2; experiment: filter retention assay

Binder | stoichiometry N (SEC) | also measured
ClpX(L13D) (enzyme) not shown | 6 | –
B1 | 6 | –
ClpX(H23A) (enzyme) not shown | 6 | –
ClpX(L12S) (enzyme) not shown | 6 | –
ClpX(L13A) (enzyme) not shown | 6 | –
MKCPVCHQGEMVSGIKDIPYTFRGRKTVLKGIHG (domain or fragment, E. coli, UniProt Q46864 1-34, looked up) [MqsA_(1–34)] | – | binding result [1]: binds
MKCPVCHQGEMVSGIKDIPYTFRGRKTVLKGIHG (domain or fragment, E. coli, UniProt Q46864 1-34, looked up) [Gfp-MqsA_(1–34)] | – | binding result (ClpX(A30S)): binds; binding result (ClpX (WT)): binds
B2 | 6 | –
